Measurements from the domain aggregation screens of Martell et al. (2025).

Assay: soluble fraction after stress (log2 fold change); higher = more stays soluble; pooled small domains, quantitative proteomics
Conditions: stress: pH 4
Outline: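 High-throughput quantitative proteomics was run on pooled custom libraries of small protein domains following pH 4 stress. Fold changes are on a log2 scale; higher values mean more of a domain remained soluble. The fold change in soluble amount is taken as a measure of aggregation propensity.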

Sequence	soluble fraction (log2)
HMQNSPVFAASDIEDIRVGMTVEHQRFGQGRVMSIEGNGPNKKTTVLFEGIGEKQLLLQYAKLKIV	-0.242
HMITQQEFQQKLEALLSRAEAESFHIKKEEAESFFSGDELTGEQMKLVFDYLLSKKIIVEGYLK	0.0629
HMRFMRVSQSKSKNSTSLYIIESVYTKDNKHTTRIVKKLGTVEELSKEHEDPLAWAKEVAKQMTEEAEQN	-0.508
HMLPRLVLSPGTEVLATVMGKYENGMSLVKISSHLFAMDLPSRVQVGDSLRMTFLHQDARPTFALA	-0.142
HMRINIVKSKNAEQLYIIHSYRINGKNTSKIYKKLGTMADLLPLHNHDRDQVLAWAKEQARLATEQYDQEN	0.26
HMPSTKDGIKEFLSSGAMKGIGRKTASAIVSRFGIDTLKIIEQEPQRLTEVSGIGKKTAQRIAEAFGKH	0.201
HMSLGSSLFHARKKSGLTQEAVAEKLGVSRQTISKWETNETLPDIRQSKGLAMLYHMTLDELIE	0.138
HMTFPTEAKLTGDKVFVRSGPSTQSQRLTNLAINSVVTVLAREMGDMQYPWYKVRYSDGEGWVYGQYVEAI	0.122
HMQMPLTMATMGEVNKIVKVGGNEETRRFLANLGFVAGAEVVVLSKIGGNVIVNVKDSRVAVNEDMARHIM	-0.692
HMDDPDALITDSQLKAIHVLLGKLKIDDNLKHAYIADVLQLKDIPETLKTLTKHQGSTIIERLNLLIKDA	-0.0657
HMDRPEPLYIVNGKEVQTLEEAFELGRTLGSAKKGTQVRLRRLLPEEGVEKYGEKGRNGVFEFMVSA	0.385
HMETIVGIDPDSKKKIVLKKGIKGRPDYLSFNKKNYSLPSELKEKNVSLEQALEIINDKKSNKKKIK	0.201
HMDLEGLSNKELVTLRGQIQDDLNKWATEVGIIDPKNRPDDYNRALQSLEDAKRQRSAIDAKL	-0.38
HMSEFGENLKKLRTARDLTQQELGAKVGLSKAVVSKYENGLGYPTFDVLIRIAAYFGVTTDYLLGV	-0.309
HMSVDVGMQLRKLREERKISMRELARLSGLSANALSMIERGLTSPSVSTLNKLAGALEVPITAFFRI	-0.00213
HMRGQGRILAMLKIQPEIATKDLAYLLGIRQQSLNELLKKLEKNSYVERRPSEKDRRVMVVHLTEKGKE	0.0202
HMKKYEFIEDLPGVGPATAQKLRDLGYHTVESLAMATARELEPIGVGEKKAFSMIEAARSAIGFS	0.00186
HMFENPRALLEMMISLGNEQGLINMARDIVSAGEFRRLELAAGGDRRKLARMLIDHLVEVAPRLP	-0.585
HMAAGKGVTTGSVRLRKGSNTDSAIIATLKKDTELILYGKKDGWYSVKTSDGTEGFVSSKYVKVTEAY	-0.297

Sequence	soluble fraction (log2)
HMTKYEGLSLDLIIDGVVITHNLKLAKLDMNWLLDRLKENGWDNPKDIFYAYIDTAGNFRFQPKLKASRTR	-0.906
HMFDGVAAGKPAILDALEDAGGFLPLNSKSSVEEIQASFSFSKRVFKQLIGMLYKERKIVITDDGIRLAD	-0.654
HMDWNPVRDITAHQVLAILQATHIRAPTVAAEAKRTLSSIFQFAVATLRADIDPVWPVRNALPKNKT	-0.561
HMEETAFEKLSPLQKLRALGKPLTMINMRDGSQIAGSVQRSDDKFLYLDTGDGIAKLPVEEILRRTPM	0.13
HMAYLTVPAVIAKDTKKSIQLLESKGFEVVIQDSIYTDTLARGTVIKQLPDPNATVKINRTVYLTVNRYTP	-0.369
HMIPDPEKVMFDGGIRLLTQAGITEGKARSILGKWKRDHETERIIAALGAAQREGAIEPVSFIERVLRN	-0.475
HMQLSASQQQILNHAAVNTDGKLVWFPETLKGGARKKVLDSLFSRALITTDGTHWFVAAEGYEALGIP	-0.0982
HMQRVSDKVAAQLRVLVQEQQLKPGDRLPAERALAVQLGVSRTALREAIAQLASQGLLTARVGGGTYVAEP	0.22
HMGGLALAEREVVEWLSQRNLLPSPDVVARAAAHPDGLGWLERSLAVLEGPRLFLGLGDLVPEP	-1.02
HMVTEIDYGAFIKMTEEGNIGEVKIEDNQIVFTDKENKAIYKTGIMPDSDLTQRLYDSGAVFA	-1.27
HMEFEKYKYHYIFDDVLGLRIVWDRGKEHFSYFVNEELAEKSRKSDKDALEVMFYLEHKRWPEEGELENY	-1.07
HMSLPALSAEEQKIVDALHGTPKGVDDIIAETGISSGALLRSLTMLELKKVIVRLPGNRIAPK	0.113
HMNMPYGTVKWFNDAKGFGFIAPEDGSADVFVHFSAINSKGFRSLQEGQRVSYEVTTGPKGAQAAGVTPVT	-0.91
HMGIMSEITHRVLRLLGLLESRSTWTGSDLAERLGVTQRTIRRDVIRLRELGYQVDSVQGLDGGYRMS	-0.0721
HMRPIDEVFGFFSRPENLTVITPSNLHFNILTPRPLEMKQGAVIDYTIKIFKVPIHWRTLITTYDPPFKFV	-0.399
HMSTMVEIPNVVGMTIKEAKEALGNLGLSISKISGSNEDSAIVTEVSPAPGSSVKRDESITLVGQPK	0.12
HMEQLESAVASRTLIGQAQGVIMERYGLSAPNAFSVLSRISQDSNTKLAEVAQQIVATRRIPG	0.0508
HMIDAHTALLAKRLEAKGMLPLTDKSSAEEIYAEFGISKKAFKKALGALYKERLVRIGEDGVVWI	0.0608
